From paper PMC8664124 (Journal of immunology (Baltimore, Md. : 1950), 2021)

Target: SARS-CoV-2 Spike (RBD)-Fc (SARS-CoV-2, UniProt P0DTC2)
Assay: ELISA

EDLFYQ [wild type Spike S1-Interacting Domain of ACE2 Receptor (SPIDAR) peptide]: binds.
